# According to PMC13200811 (Cell, 2025):
# Like-named read-outs stand apart in the source and are kept apart here.
# B1: full-length monomeric BCL-w (aa 1-193), Q92843 1-193 (natural protein)
# chain: MATPASAPDTRALVADFVGYKLRQKGYVCGAGPGEGPAADPLHQAMRAAGDEFETRFRRTFSDLAAQLHVTPGSAQQRFTQVSDELFQGGPNWGRLVAFFVFGAALCAESVNKEMEPLVGQVQEWMVAYLETQLADWIHSSGGWAEFTALYGDGALEEARRLREGNWASVRTVLTGAVALGALVTVGAFFASK
# B2: BCL-w G94E (full length) (natural protein, human, UniProt Q92843 1-193, looked up)
# chain: MATPASAPDTRALVADFVGYKLRQKGYVCGAGPGEGPAADPLHQAMRAAGDEFETRFRRTFSDLAAQLHVTPGSAQQRFTQVSDELFQGGPNWERLVAFFVFGAALCAESVNKEMEPLVGQVQEWMVAYLETQLADWIHSSGGWAEFTALYGDGALEEARRLREGNWASVRTVLTGAVALGALVTVGAFFASK
# B3: GFP-BCL-w α1-α8 (aa 1-156) (domain or fragment, human, UniProt Q92843 1-156, looked up)
# chain: MATPASAPDTRALVADFVGYKLRQKGYVCGAGPGEGPAADPLHQAMRAAGDEFETRFRRTFSDLAAQLHVTPGSAQQRFTQVSDELFQGGPNWGRLVAFFVFGAALCAESVNKEMEPLVGQVQEWMVAYLETQLADWIHSSGGWAEFTALYGDGAL
# B4: BCL-wΔC (aa 1-156; α1-α8) (domain or fragment, human, UniProt Q92843 1-156, looked up)
# chain: MATPASAPDTRALVADFVGYKLRQKGYVCGAGPGEGPAADPLHQAMRAAGDEFETRFRRTFSDLAAQLHVTPGSAQQRFTQVSDELFQGGPNWGRLVAFFVFGAALCAESVNKEMEPLVGQVQEWMVAYLETQLADWIHSSGGWAEFTALYGDGAL
# Experiments:
# [1] = biological target: BCL-wΔN (aa 40-193; α2-α9) (human) (UniProt Q92843); test: SEC
# [2] = biological target: BCL-wΔNΔC (aa 40-156; α2-α8) (human) (UniProt Q92843); test: SEC
# [3] = biological target: T1, full-length monomeric BCL-w (aa 1-193) (human), Q92843; test: SEC-MALS; conditions: remark: other sources report otherwise
# T1 chain: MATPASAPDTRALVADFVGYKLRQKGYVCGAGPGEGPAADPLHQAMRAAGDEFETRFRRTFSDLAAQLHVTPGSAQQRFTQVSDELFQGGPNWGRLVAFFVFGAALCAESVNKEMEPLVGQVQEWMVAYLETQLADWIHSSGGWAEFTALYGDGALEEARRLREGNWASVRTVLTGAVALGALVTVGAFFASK
# [4] = biological target: T1, full-length monomeric BCL-w (aa 1-193) …; test: SEC-SAXS; conditions: remark: other sources report otherwise
# SEC [5] = biological target: the molecule itself; test: SEC
# SEC [6] = biological target: the molecule itself; test: SEC; remark: listed apart in the source
molecule,measurement,setting,value
BCL-wΔN (aa 40-193; α2-α9) (from UniProt Q92843 40-193) (domain or fragment),stoichiometry N,[1],2
BCL-wΔNΔC (aa 40-156; α2-α8) (from UniProt Q92843 40-156) (domain or fragment),stoichiometry N,[2],2
B1,stoichiometry N,[3],2
same,stoichiometry N,[4],2
B2,stoichiometry N,SEC [5],2
B3,stoichiometry N,SEC [6],2
B4,stoichiometry N,SEC [5],2
